# Measurements reported in patent US20240067748A1 (NONA BIOSCIENCES SUZHOU, published 2024).
# T1: human Trop2 on cells (human, UniProt P09758 27-323)
# T1 construct: whole, on cells; also called hTrop2; 293T-human Trop2 cells
# T1 sequence (looked up): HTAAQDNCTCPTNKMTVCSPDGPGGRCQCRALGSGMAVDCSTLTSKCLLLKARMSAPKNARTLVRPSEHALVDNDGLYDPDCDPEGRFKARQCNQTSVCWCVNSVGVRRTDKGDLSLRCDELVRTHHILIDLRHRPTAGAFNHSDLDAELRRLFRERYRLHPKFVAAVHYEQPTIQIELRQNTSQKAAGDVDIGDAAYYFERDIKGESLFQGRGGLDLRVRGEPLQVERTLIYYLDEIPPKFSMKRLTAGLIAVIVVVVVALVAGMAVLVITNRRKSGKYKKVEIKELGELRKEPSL
# T2: monkey Trop2 on CHO-K1 cells (monkey, UniProt A0A2K5UE71 27-323)
# T2 construct: also called CHO-K1/monkey Trop2
# T2 sequence: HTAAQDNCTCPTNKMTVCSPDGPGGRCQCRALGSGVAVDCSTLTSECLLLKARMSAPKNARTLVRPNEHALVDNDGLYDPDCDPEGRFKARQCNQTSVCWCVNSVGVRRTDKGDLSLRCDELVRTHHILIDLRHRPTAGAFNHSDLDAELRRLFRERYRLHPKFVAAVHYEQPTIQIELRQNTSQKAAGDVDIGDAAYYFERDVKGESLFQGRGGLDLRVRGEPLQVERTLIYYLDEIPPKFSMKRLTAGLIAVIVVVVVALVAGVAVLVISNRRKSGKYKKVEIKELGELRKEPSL
# T3: mouse Trop2-his protein (Sino Biological, #50922-M08H) (mouse, UniProt Q8BGV3 25-270)
# T3 construct: bought protein; also called mouse Trop2 protein; not shown: his tag
# T3 sequence (looked up): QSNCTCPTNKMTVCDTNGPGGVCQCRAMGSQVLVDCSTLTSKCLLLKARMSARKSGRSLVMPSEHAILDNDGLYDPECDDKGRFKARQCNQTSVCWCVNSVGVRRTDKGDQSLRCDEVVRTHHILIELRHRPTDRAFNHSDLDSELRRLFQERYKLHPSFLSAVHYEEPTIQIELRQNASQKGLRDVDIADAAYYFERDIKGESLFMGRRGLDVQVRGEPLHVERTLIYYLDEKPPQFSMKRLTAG
# Tests used:
# [1] = target: T1, human Trop2 on cells; assay: flow cytometry on BxPC-3 tumor cells (second panel of the table)
# Protocol: BxPC-3 tumor cells (the Cell Bank of the Chinese Academy of Sciences, #TCHu 12) were digested with 3 mL of TrypLE, and the digestion was stopped with 7 mL of the corresponding medium. […] The cell solution was centrifuged, and the cells were washed once with PBS+[…] buffer. […] The cells were washed once with PBS+0.50% BSA. The cells were incubated at 4° C. for 1 h in the dark with 100 μL of Alexa Fluor 488 goat anti-human IgG (Life technologies, #A-11013) diluted at 1:1000, and washed twice with PBS+0.50% BSA. The cells were resuspended in 200 μL of PBS+0.50% BSA. The suspension was centrifuged at 4° C. for 5 min at 2000 rpm and tested using a FACS verse flow cytometer or NovoCyte flow cytometer (ACEA Biosciences). All procedures were performed on ice.
# [2] = target: T2, monkey Trop2 on CHO-K1 cells; assay: flow cytometry on CHO-K1/monkey Trop2 cells (second run)
# Protocol: CHO-K1/monkey Trop2 cells (Chempartner, Shanghai, China) and CHO-K1 blast cells were each digested with 3 mL of TrypLE, and the digestion was stopped with 7 mL of the corresponding medium. […] The cell solution was centrifuged, and the cells were washed once with PBS+0.5% BSA. […] The cells were washed once with PBS+0.5% BSA. The cells were incubated at 4° C. for 1 h in the dark with 100 μL of Alexa Fluor 488 goat anti-human IgG (Life technologies, #A-11013) diluted at 1:1000, and washed twice with PBS+0.5% BSA. The cells were resuspended in 200 μL of PBS+0.5% BSA. The suspension was centrifuged at 4° C. for 5 min at 2000 rpm and tested using a FACS verse flow cytometer or NovoCyte flow cytometer (ACEA Biosciences). All procedures were performed on ice.
# [3] = target: T3, mouse Trop2-his protein (Sino …); assay: ELISA, plate coated with mouse Trop2-his protein
# Protocol: An ELISA plate was coated with 100 μL of 1 μg/mL mouse Trop2-his protein (Sino Biological, #50922-M08H) in PBS at 4° C. overnight. The plate was blocked with 200 μL of PBST (PBS+0.05% tween 20)+2% BSA at 37° C. for 1 h. The plate was washed 4 times with PBST. 100 μL of Trop2 antibody diluted in a gradient (5-fold dilution, starting concentration: 33.33 nM) was added to the ELISA plate and the plate was incubated at 37° C. for 1 h. The plate was washed 4 times with PBST. 100 μL of anti-human IgG (H+L)-HRP (Sigma, #A8667) diluted in 1:4000 was added and the plate was incubated at 37° C. for 1 h. The plate was washed 4 times with PBST. 100 μL of TMB substrate (Invitrogen, #88-7025-88) was added and the plate was incubated at room temperature for 5 min, and then 50 μL of stop buffer (BBI life sciences, #E661006-0200) was added to stop the reaction. The OD450 nm reading was recorded using a microplate reader (Perkin Elmer, EnSpire).
EC50 [1],EC50 [2],Binder,binding result [3]
2.67 nM,1.3 nM,"comparative example 2 antibody Tab (hRS7) (antibody, human IgG1, kappa, V domains shown, prepared on the basis of sacituzumab govitecan (ChemPartner, #T07-001); naked antibody) VH: QVQLQQSGSELKKPGASVKVSCKASGYTFTNYGMNWVKQAPGQGLKWMGWINTYTGEPTYTDDFKGRFAFSLDTSVSTAYLQISSLKADDTAVYFCARGGFGSSYWYFDVWGQGSLVTVSS VL: DIQLTQSPSSLSASVGDRVSITCKASQDVSIAVAWYQQKPGKAPKLLIYSASYRYTGVPDRFSGSGSGTDFTLTISSLQPEDFAVYYCQQHYITPLTFGAGTKVEIKR",no binding (tested: 33.33 nM (starting concentration))
1.71 nM,1.8 nM,"PR001165 (antibody, human IgG1, kappa, V domains shown, fully human IgG1/kappa; also called antibody No. (26)) VH: QVQLVESGGGVVQPGRSLRLSCEASGFTFSHYGMHWVRQAPGKGLEWVAVIWYDGIKTYYVESVKGRFTISRDNSKNTLNLQMNRLRAEDTAVYYCARDGGFGESNYYGLDVWGQGTTVTVSS VL: DIQLTQSPSFLSASVGDRVTITCRASQGISSYLGWYQQKPGKAPKLLIYIASTLQSGVPSRFSGSGSGTEFTLTISSLQPEDFATYYCQQLNSYPYTFGQGTKLEIKR",
